# Reference: patent US12156920B2, “Double-labeled probe for molecular imaging and use thereof” (Deutsches Krebsforschungszentrum, priority 2017, dated 2024)
# Like-named read-outs stand apart in the source and are kept apart here.
# Legend:
# [1] = molecular target: T1, PSMA (Homo sapiens, UniProt Q04609); assay: Competitive cell binding assay on LNCaP cells (PSMA binding affinity); settings: competition against 0.2 nM 68Ga-labeled PSMA-10
# T1 construct: endogenous in cells; host or cells: LNCaP cells (ATCC CRL-1740)
# T1 sequence (Q04609 whole entry): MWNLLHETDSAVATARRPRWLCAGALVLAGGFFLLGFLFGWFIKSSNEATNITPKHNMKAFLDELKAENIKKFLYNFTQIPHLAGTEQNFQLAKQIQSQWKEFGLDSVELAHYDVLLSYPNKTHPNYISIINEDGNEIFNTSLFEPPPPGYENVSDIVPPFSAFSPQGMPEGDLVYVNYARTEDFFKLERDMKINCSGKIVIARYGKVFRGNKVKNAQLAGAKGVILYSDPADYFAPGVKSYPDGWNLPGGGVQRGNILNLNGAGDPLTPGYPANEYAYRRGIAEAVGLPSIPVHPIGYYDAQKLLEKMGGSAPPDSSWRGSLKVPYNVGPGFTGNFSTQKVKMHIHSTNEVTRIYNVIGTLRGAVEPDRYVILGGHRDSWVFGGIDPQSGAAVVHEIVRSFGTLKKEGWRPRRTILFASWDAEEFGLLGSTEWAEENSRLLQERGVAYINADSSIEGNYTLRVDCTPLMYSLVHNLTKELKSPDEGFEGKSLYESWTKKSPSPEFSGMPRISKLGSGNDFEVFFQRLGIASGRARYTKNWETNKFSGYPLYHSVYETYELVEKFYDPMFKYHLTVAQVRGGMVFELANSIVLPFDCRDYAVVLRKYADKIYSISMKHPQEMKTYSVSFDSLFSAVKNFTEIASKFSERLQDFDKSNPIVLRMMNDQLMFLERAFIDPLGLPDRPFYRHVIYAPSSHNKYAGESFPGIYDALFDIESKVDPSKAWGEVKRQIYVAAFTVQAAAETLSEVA
# Protocol: (§1) PSMA^+ LNCaP cells (ATCC CRL-1740) were cultured in RPMI medium supplemented with 10% fetal calf serum and 2 mmol/L L-glutamine (all from PAA). Cells were grown at 37° C. in humidified air with 5% CO2 and were harvested using trypsin-ethylenediaminetetraacetic acid (trypsin-EDTA; 0.25% trypsin, 0.02% EDTA, Invitrogen).
# The competitive cell binding assay and internalization experiments were performed as described previously (4). Briefly, the cells (10^5 per well) were incubated with a 0.2 nM solution of ^68Ga-labeled radioligand [Glu-urea-Lys(Ahx)]2-HBED-CC (PSMA-10, precursor ordered from ABX, Radeberg, Germany) in the presence of 12 different concentrations of analyte (0-5000 nM, 100 μL/well). After incubation, the mixture was removed and the wells were washed 3 times with PBS using a multiscreen vacuum manifold (Millipore, Billerica, Mass.). Cell-bound radioactivity was measured using a gamma counter (Packard Cobra II, GMI, Minnesota, USA). The 50% inhibitory concentration (IC50) values were calculated by fitting the data using a nonlinear regression algorithm (GraphPad Software).
# [2] = tested on: LNCaP-tumor bearing balb/c nu/nu mice; assay: Biodistribution (organ distribution) of 68Ga-labeled compounds; type: in vivo
# Protocol: (§2) The precursor peptides [1 nmol in HEPES buffer (580 mg/ml), 90 μL] were added to 40 μL [^68Ga]Ga^3+ eluate (˜40 MBq). The pH was adjusted to 3.8 using 30% NaOH and 10% NaOH, respectively. The reaction mixture was incubated at 98° C. for 10 minutes. The radiochemical yield (RCY) was determined by HPLC. For the experimental tumor models 5×10^6 cells of LNCaP (in 50% Matrigel; Becton Dickinson, Heidelberg, Germany) were subcutaneously inoculated into the right trunk of 7- to 8-week-old male BALB/c nu/nu mice (Charles River). The tumors were allowed to grow until approximately 1 cm^3 in size. The ^68Ga-labeled compounds were injected into a tail vein (1-2 MBq; 60 pmol). […] Organs of interest were dissected, blotted dry, and weighed. The radioactivity was measured using a gamma counter and calculated as % ID/g. All animal experiments complied with the current laws of the Federal Republic of Germany.
# [3] = as above; type: in vivo, mice; settings: male, BALB/c nu/nu, mouse, iv, 60 pmol, total radioactivity
# Protocol: as §2
# [4] = tested on: PSMA+ LNCaP cells; assay: Internalization experiments (specific cell surface bound and internalized fractions); type: cell-based; settings: 68Ga-labeled compound 30 nM, 45 min
# Protocol: as §1
# For internalization experiments, 10^5 cells per well were seeded in poly-L-lysine coated 24-well cell culture plates 24 h before incubation. After washing, the cells were incubated with 30 nM of the radiolabeled compound for 45 min at 37° C. and at 4° C., respectively. Cellular uptake was terminated by washing 3 times with 1 mL of ice-cold PBS. To remove surface-bound radioactivity, cells were incubated twice with 0.5 mL glycine-HCl in PBS (50 mM, pH=2.8) for 5 min. The cells were washed with 1 mL of ice-cold PBS and lysed using 0.3 N NaOH (0.5 mL). The surface-bound and the internalized fractions were measured in a gamma counter. The cell uptake was calculated as percent of the initially added radioactivity bound to 10^5 cells [% ID/10^5 cells].
# [5] = in vivo, Organ distribution Blood
# [6] = in vivo, Organ distribution Brain
# [7] = in vivo, Organ distribution Heart
# [8] = in vivo, Organ distribution Intestine
# [9] = in vivo, Organ distribution Kidney
# [10] = in vivo, Organ distribution Liver
# [11] = in vivo, Organ distribution Lung
# [12] = in vivo, Organ distribution Muscle
# [13] = in vivo, Organ distribution Spleen
# [14] = listed as PSMA-HBED-CC-PEG2-IRDye8000CW
smiles,measurement,setting,value
"CC1(C)C(/C=C/C2=C(Oc3ccc(S(=O)(=O)O)cc3)C(=C\C=C3/N(CCCCS(=O)(=O)O)c4ccc(S(=O)(=O)O)cc4C3(C)C)/CCC2)=[N+](CCCCCC(=O)NCCOCCOCCNC(=O)CCc2ccc(O)c(CN(CCN(CC(=O)O)Cc3cc(CCC(=O)NCCCCC(NC(=O)NC(CCC(=O)O)C(=O)O)C(=O)O)ccc3O)CC(=O)O)c2)c2ccc(S(=O)(=O)O)cc21 (stereo not shown) [PSMA-HBED-CC-PEG2-IRDye800CW, Glu-urea-Lys-HBED-CC-PEG2-IRDye800CW, reference compound]",Ki,[1],17.5 ± 4.98 nM
same,Tumor-to-Organ ratio T/Kidney,"[2]; 68Ga labeled, 1 h p.i.",0.07
same,Tumor-to-Organ ratio T/Blood,"[2]; mouse, in vivo",4.49
same,Tumor-to-Organ ratio T/Brain,"[2]; mouse, in vivo",31.39
same,Tumor-to-Organ ratio T/Heart,"[2]; mouse, in vivo",4.92
same,Tumor-to-Organ ratio T/Intestine,"[2]; mouse, in vivo",5.66
same,Tumor-to-Organ ratio T/Liver,"[2]; mouse, in vivo",4.94
same,Tumor-to-Organ ratio T/Lung,"[2]; mouse, in vivo",2.44
same,Tumor-to-Organ ratio T/Muscle,"[2]; mouse, in vivo",4.78
same,Tumor-to-Organ ratio T/Spleen,"[2]; mouse, in vivo",0.36
same,tissue uptake at 1 h,[3]; [5],3.04 %ID/g
same,tissue uptake at 2 h,[3]; [5],0.76 %ID/g
same,tissue uptake at 1 h,[3]; [6],0.43 %ID/g
same,tissue uptake at 2 h,[3]; [6],0.22 %ID/g
same,tissue uptake at 1 h,[3]; [7],2.78 %ID/g
same,tissue uptake at 2 h,[3]; [7],1 %ID/g
same,tissue uptake at 1 h,[3]; [8],2.41 %ID/g
same,tissue uptake at 2 h,[3]; [8],1.37 %ID/g
same,tissue uptake at 1 h,[3]; [9],205 %ID/g
same,tissue uptake at 2 h,[3]; [9],120 %ID/g
same,tissue uptake at 1 h,[3]; [10],2.76 %ID/g
same,tissue uptake at 2 h,[3]; [10],1.21 %ID/g
same,tissue uptake at 1 h,[3]; [11],5.6 %ID/g
same,tissue uptake at 2 h,[3]; [11],2.53 %ID/g
same,tissue uptake at 1 h,[3]; [12],2.86 %ID/g
same,tissue uptake at 2 h,[3]; [12],1.96 %ID/g
same,tissue uptake at 1 h,[3]; [13],38.1 %ID/g
same,tissue uptake at 2 h,[3]; [13],13.7 %ID/g
same,tissue uptake at 2 h,"[3]; in vivo, Organ distribution Tumor",7.94 %ID/g
same,tissue uptake at 1 h,"[3]; in vivo, Organ distribution Tumor (tumor accumulation)",13.7 %ID/g
same,tissue to tissue ratio at 1 h,"[3]; in vivo, Tumor-to-Organ ratio T/Blood",4.49
same,tissue to tissue ratio at 1 h,"[3]; in vivo, Tumor-to-Organ ratio T/Brain",31.4
same,tissue to tissue ratio at 1 h,"[3]; in vivo, Tumor-to-Organ ratio T/Heart",4.92
same,tissue to tissue ratio at 1 h,"[3]; in vivo, Tumor-to-Organ ratio T/Intestine",5.66
same,tissue to tissue ratio at 1 h,"[3]; in vivo, Tumor-to-Organ ratio T/Liver",4.94
same,tissue to tissue ratio at 1 h,"[3]; in vivo, Tumor-to-Organ ratio T/Lung",2.44
same,tissue to tissue ratio at 1 h,"[3]; in vivo, Tumor-to-Organ ratio T/Muscle",4.78
same,tissue to tissue ratio at 1 h,"[3]; in vivo, Tumor-to-Organ ratio T/Spleen",0.36
same,tissue to tissue ratio at 1 h,"[3]; tumor and kidney, 68Ga labeled, 1 h p.i., read-out: Tumor-to-Organ ratio T/Kidney",0.07
same,Specific cell surface bound,[4],improved
same,Specific internalized,[4],improved
same,Specific cell surface bound,[4]; [14],13.62 ± 4.79 % ID/10^5 cells
same,Specific internalized,[4]; [14],18.70 ± 7.03 % ID/10^5 cells
